Earlier results on one substance are cited in publication PMC3906610.

For orientation: Kd means the equilibrium constant for the complex coming apart.

This series deals with PagP (Escherichia coli) (UniProt P37001).
Sequence of UniProt P37001 (P37001 26-186): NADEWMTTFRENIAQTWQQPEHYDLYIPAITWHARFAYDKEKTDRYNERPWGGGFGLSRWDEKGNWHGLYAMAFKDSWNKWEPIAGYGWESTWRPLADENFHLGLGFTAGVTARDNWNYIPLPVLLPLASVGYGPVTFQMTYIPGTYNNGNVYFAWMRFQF

In the case of Skp (from UniProt P0AEU7), the Kd was 11.8 nM.
